Patent publication US20210179716A1

Experiments:
[1] = biological target: human CD47 on the cell surface (human); assay: cell binding to HT1080 tumor cells in a 1:10 mixture with red blood cells
[2] = biological target: human CD47 on the cell surface (human); assay: cell binding to red blood cells in a 1:10 mixture of HT1080 cells and red blood cells

EC50 [1]: < 0.1 nM
EC50 [2]: < 0.1 nM
Substance: monospecific anti-CD47 mAb 5F9 (antibody)
